B2: murine integrin α4Y991A β1 of CD11b+ myeloid cells from α4Y991A knockin mice (receptor, mouse)
chain 1: YNLDPENALLYQGPSGTLFGYSVVLHSHGSKRWLIVGAPTASWLSNASVVNPGAIYRCGIRKNPNQTCEQLQSGSPSGEPCGKTCLEERDNQWLGVTLSRQPGENGSIVTCGHRWKNIFYMKSDNKLPTGICYVMPSDLRTELSKRMAPCYKDYTRKFGENFASCQAGISSFYTQDLIVMGAPGSSYWTGTVFVYNITTNQYKAFVDRQNQVKFGSYLGYSVGAGHFRSPHTTEVVGGAPQHEQIGKAYIFSIDENELNIVYEMKGKKLGSYFGASVCAVDLNADGFSDLLVGAPMQSTIREEGRVFVYINSGMGAVMVEMERVLVGSDKYAARFGESIANLGDIDNDGFEDIAIGAPQEDDLRGAVYIYNGRVDGISSTYSQRIEGQQISKSLRMFGQSISGQIDADNNGYVDVAVGAFQSDSAVLLRTRPVVIVEASLSHPESVNRTKFDCTENGLPSVCMHLTLCFSYKGKEVPGYIVLFYNVSLDVHRKAESPSRFYFFSNGTSDVITGSIRVSSSGEKCRTHQAFMRKDVRDILTPIHVEATYHLGHHVITKRNTEEFPPLQPILQQKKEKDVIRKMINFARFCAYENCSADLQVSAKVGFLKPYENKTYLAVGSMKTIMLNVSLFNAGDDAYETTLNVQLPTGLYFIKILDLEEKQINCEVTESSGIVKLACSLGYIYVDRLSRIDISFLLDVSSLSRAHEDLSISVHASCENEGELDQVRDNRVTLTIPLRYEVMLTVHGLVNPTSFVYGSSEENEPETCMAEKLNLTFHVINTGISMAPNVSVKIMVPNSFLPQDDKLFNVLDVQTTTGQCHFKHYGRECTFAQQKGIAGTLTDIVKFLSKTDKRLLYCMKADQHCLDFLCNFGKMESGKEASVHIQLEGRPSILEMDETSSLKFEIKATAFPEPHPKVIELNKDENVAHVFLEGLHHQRPKRHFTIIIITISLLLGLIVLLLISCVMWKAGFFKRQYKSILQEENRRDSWSAVNSKSNDD
chain 2: QTDKNRCLKANAKSCGECIQAGPNCGWCTNTTFLQEGMPTSARCDDLEALKKKGCQPSDIENPRGSQTIKKNKNVTNRSKGMAEKLRPEDITQIQPQQLLLKLRSGEPQKFTLKFKRAEDYPIDLYYLMDLSYSMKDDLENVKSLGTDLMNEMRRITSDFRIGFGSFVEKTVMPYISTTPAKLRNPCTSEQNCTSPFSYKNVLSLTDRGEFFNELVGQQRISGNLDSPEGGFDAIMQVAVCGSLIGWRNVTRLLVFSTDAGFHFAGDGKLGGIVLPNDGQCHLENNVYTMSHYYDYPSIAHLVQKLSENNIQTIFAVTEEFQPVYKELKNLIPKSAVGTLSGNSSNVIQLIIDAYNSLSSEVILENSKLPDGVTINYKSYCKNGVNGTGENGRKCSNISIGDEVQFEISITANKCPNKESETIKIKPLGFTEEVEVVLQFICKCNCQSHGIPASPKCHEGNGTFECGACRCNEGRVGRHCECSTDEVNSEDMDAYCRKENSSEICSNNGECVCGQCVCRKRDNTNEIYSGKFCECDNFNCDRSNGLICGGNGVCRCRVCECYPNYTGSACDCSLDTGPCLASNGQICNGRGICECGACKCTDPKFQGPTCETCQTCLGVCAEHKECVQCRAFNKGEKKDTCAQECSHFNLTKVESREKLPQPVQVDPVTHCKEKDIDDCWFYFTYSVNGNNEAIVHVVETPDCPTGPDIIPIVAGVVAGIVLIGLALLLIWKLLMIIHDRREFAKFEKEKMNAKWDTGENPIYKSAVTTVVNPKYEGK
notes: whole, on cells; It may be mature-chain numbering and may not match the precursor entry; also called α4YA; YA

Test [1] has as its system CD11b+ cells adhesion to endothelium. The test is described as follows: Adhesion of CD11b+ cells to endothelium (Example 1 adhesion assay). The test is classed as cell-based, murine. To be noted: SDF-1α, TCM or IL-1β (and other chemoattractant) induced. How it is done: TCM was prepared from serum-free media cultured on LLC cells for 18 h and filtered through 0.22 μm filters. 10^5 calcein-AM labelled human or murine CD11b+ cells in TCM or DMEM containing 200 ng/ml SDF-1α, IL-1β, IL-6, IL-8 or VEGF-A (R&D Systems) were incubated on HUVEC monolayers or on plastic plates coated with 5 μg/ml recombinant soluble VCAM-1 (R&D Systems). Adherent cells were quantified using a fluorescence activated plate reader (GeniosPro, TECAN). In some assays, cells were also incubated in 25 μg/ml anti-integrin α4β1 (PS2 for murine cells and HP2/1 for human cells, gifts from Biogen-Idec) and isotype control antibodies (IgG2bk for murine cells and IgG1 for human cells). In some studies, cells were incubated in 10 μM pan PI3K inhibitors […] or TG020, in PI3kinase α inhibitor PI3K75, PI3kinase γ/δ inhibitor TG115 and an inert control.

For the next test, the system named is integrin α4. Put plainly: Integrin α4 clustering in CD11b+ cells. The test is classed as cell-based. Conditions: SDF-1α or IL-1β induced. The procedure:
Activation of human CD29 (integrin β1 chain) in cytokine stimulated human CD11b+ cells was quantified by flow cytometry using HUTS-21 antibodies (BD Bioscience). Total β1 integrin levels were assessed using P4C10 antibodies (Chemicon). 2.5×10^6 freshly isolated human myeloid cells/ml in culture medium containing 5% FBS and 0.5% NaN3 were incubated in 10 μg/ml normal human immunoglobulin (12000C, Caltag) for 45 min on ice, then in 2 μg/ml SDF-1α, IL-1β, IL-6 or 1 mM Mn2+ plus 2.5 μg HUTS21, P4C10, or IgG2 control for 10 min at 37° C. followed by Alexa 488 goat-anti mouse antibodies for 20 min on ice. Expression levels of murine integrin α4 on bone marrow derived cells were determined by flow cytometry for PE-conjugated R1/2 (rat anti-CD49d antibody, eBioscience). To induce integrin α4 activation on human myeloid cells or murine WT and α4Y991A myeloid, purified CD11b+ cells were incubated with polystyrene microspheres (9.0 μm diameter, Bangs Laboratories) coated with TCM, 2 μg/ml SDF-1α or IL-1β overnight at 4° C. cells as previously described by Grabovsky et al., 2000. […] Samples were analyzed by Nikon CS1 spectral confocal on a Nikon TE2000E inverted microscopy. Images were captured using EZ-C13.00 imaging software and analyzed using Metamorph software.

Test [2] addresses B2. The test is described as follows: flow cytometry of VCAM-1/Fc on CD11b+ cells (FIG. 27e). The procedure: (§1) 5×10⁵ CD11b+ cells isolated from WT, α4Y991A, or PI3-kinase γ−/− mice (naïve or tumour-bearing) were incubated with 200 ng/ml IL-1β, SDF-1α, IL-6, TNFα, VEGF-A or medium together with 1 mg/ml mouseVCAM-1/humanFc fusion protein (R&D Systems) for 3 min. Cells were washed twice and incubated with donkey anti-human-FC-PE antibody (Jackson Immunoresearch) then analysed by FACs Calibur. Mean fluorescence intensity of treated cells was compared to that of unstimulated cells (basal). In other studies, cells from WT mice were untreated or were treated with 1 μM PI3-kinase α, β, or γ inhibitors for 30 min at 37° C. In some experiments GFP/RapV12 or GFP/RasV12 transfected CD11b+ cells were used. In this case, increased mean fluorescence intensity was measured for only GFP-positive cells.
(In general: In flow cytometry, cells or beads pass a laser one at a time.)

The target of test [3] is T1, murine integrin α4β1 (wildtype) of CD11b+ myeloid cells (mouse, UniProt Q00651 41-1039; P09055 21-798).
T1 construct: whole, on cells; In the co-immunoprecipitations it was precipitated from CHAPS lysates of bone marrow cells with PS/2; also called VLA-4; VLA4
The test is described as follows: flow cytometry, VCAM-1/Fc on murine CD11b+ cells (FIG. 27e). The procedure:
as §1

The target of test [4] is T2, talin (murine, endogenous in bone marrow derived myeloid cells) (mouse, UniProt P26039 1-2541).
T2 construct: Detected by immunoblot with anti-talin clone TD77
T2 sequence (P26039 whole entry): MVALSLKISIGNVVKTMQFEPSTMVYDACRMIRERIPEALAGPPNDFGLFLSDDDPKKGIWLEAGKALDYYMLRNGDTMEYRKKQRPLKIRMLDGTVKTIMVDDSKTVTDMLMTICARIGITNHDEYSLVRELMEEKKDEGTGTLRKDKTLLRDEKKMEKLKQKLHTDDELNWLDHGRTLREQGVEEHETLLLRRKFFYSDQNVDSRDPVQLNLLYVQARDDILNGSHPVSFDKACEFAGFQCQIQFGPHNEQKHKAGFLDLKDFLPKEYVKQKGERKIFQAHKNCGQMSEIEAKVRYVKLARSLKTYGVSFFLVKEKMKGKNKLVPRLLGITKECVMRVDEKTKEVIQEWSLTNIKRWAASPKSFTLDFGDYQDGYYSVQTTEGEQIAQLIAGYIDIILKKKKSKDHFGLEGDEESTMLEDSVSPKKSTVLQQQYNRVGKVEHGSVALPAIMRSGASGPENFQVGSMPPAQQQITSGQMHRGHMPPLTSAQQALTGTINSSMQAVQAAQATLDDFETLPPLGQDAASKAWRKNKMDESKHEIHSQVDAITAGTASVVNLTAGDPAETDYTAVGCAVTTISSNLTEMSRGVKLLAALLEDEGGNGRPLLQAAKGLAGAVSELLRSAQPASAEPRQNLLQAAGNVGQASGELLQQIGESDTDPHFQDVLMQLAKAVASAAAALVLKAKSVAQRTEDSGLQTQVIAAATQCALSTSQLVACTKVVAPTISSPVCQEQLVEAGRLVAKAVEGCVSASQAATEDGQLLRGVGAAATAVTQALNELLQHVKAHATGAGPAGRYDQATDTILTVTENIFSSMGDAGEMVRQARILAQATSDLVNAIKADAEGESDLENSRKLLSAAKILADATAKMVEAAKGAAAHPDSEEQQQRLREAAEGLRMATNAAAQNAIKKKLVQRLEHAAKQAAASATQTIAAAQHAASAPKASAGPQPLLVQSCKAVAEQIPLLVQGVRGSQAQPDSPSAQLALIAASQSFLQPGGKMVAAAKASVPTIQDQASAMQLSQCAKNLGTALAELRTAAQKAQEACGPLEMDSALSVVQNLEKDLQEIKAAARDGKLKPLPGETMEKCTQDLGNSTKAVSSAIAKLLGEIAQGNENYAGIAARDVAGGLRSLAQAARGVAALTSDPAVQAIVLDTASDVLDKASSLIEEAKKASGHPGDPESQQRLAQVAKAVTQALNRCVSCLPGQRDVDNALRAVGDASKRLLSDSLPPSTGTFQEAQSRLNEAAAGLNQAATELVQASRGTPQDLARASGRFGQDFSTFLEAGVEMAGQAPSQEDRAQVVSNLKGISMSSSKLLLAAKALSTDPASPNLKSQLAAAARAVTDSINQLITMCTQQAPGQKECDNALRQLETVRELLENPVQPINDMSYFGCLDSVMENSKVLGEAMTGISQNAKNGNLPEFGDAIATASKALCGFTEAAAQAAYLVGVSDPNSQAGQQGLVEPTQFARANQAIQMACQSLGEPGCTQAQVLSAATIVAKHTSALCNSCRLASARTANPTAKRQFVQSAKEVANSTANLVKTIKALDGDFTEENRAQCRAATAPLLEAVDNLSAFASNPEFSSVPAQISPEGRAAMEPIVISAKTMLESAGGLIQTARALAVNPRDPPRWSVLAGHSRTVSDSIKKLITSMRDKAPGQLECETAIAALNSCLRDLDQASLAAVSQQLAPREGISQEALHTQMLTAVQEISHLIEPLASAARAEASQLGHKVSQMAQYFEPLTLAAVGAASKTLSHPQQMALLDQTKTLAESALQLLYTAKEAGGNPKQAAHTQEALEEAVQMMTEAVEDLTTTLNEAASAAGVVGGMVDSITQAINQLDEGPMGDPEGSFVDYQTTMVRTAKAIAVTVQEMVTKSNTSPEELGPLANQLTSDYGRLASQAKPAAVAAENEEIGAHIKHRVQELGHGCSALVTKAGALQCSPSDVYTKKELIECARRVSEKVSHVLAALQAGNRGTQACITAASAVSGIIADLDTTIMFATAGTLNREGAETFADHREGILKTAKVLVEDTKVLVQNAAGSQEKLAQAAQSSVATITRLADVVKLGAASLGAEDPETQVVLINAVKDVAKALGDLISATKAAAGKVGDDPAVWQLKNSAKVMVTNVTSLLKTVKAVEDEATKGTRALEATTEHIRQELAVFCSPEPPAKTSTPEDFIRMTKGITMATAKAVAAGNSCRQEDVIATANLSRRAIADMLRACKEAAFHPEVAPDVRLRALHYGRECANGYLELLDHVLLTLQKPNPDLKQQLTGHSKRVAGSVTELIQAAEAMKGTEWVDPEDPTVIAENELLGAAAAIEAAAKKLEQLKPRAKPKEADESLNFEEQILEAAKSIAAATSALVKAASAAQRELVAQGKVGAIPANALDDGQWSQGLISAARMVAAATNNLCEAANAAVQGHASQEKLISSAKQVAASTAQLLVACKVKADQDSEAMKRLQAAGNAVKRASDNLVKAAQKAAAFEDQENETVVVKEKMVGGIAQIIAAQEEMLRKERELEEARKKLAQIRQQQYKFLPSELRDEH
Put plainly: co-immunoprecipitation with PS/2, immunoblot (FIG. 3d). How it is done: BM monocytic cells from WT or α4Y991A mice were isolated as described above and treated with either DMEM or TCM for 30 min at 37° C. Cells were rinsed with cold PBS and lysed in Tris-buffered saline containing 1% CHAPS, 20 mM β-glycerophosphate, 1 mM Na₃VO₄, 5 mM NaF, 100 ng/ml microcystin-LR, and protease inhibitor cocktail. Clarified cell lysates were immunoprecipitated as follows: 1 mg total protein was precleared with 10 μl protein G-conjugated Dynabeads (Invitrogen) for 1 hr with rotation. Cleared lysates were incubated with 5 μg of rat anti-α4β1 (PS/2) antibody overnight, followed by adding 25 μl of protein G-conjugated Dynabeads for 3 h with rotation. Beads were washed three times with 1 ml cold PBS containing protease inhibitor cocktail. Protein precipitates were electrophoresed on 10% SDS-PAGE gels and immunoblotted with anti-integrin α4 (C-20, Santa Cruz Biotechnology), anti-talin (Clone TD77, Chemicon) or anti-paxillin (H-114, Santa Cruz Biotechnology) antibodies. Immune complexes were visualized using an enhanced chemiluminescence detection kit (Pierce).
BM cells (comprised of 80% CD11b+Gr1+ cells) from WT or α4Y991A mice were isolated as described above and treated with either DMEM or TCM for 30 min at 37° C. […]
For orientation: Immunoblotting shows a protein as a band on a membrane.

As for pertussis toxin, the “CD11b+ cell adhesion to endothelium” value in test [1] is “inhibited SDF-1α, and TCM-induced but not IL-1β induced adhesion”. In addition, the “integrin α4 clustering” value in the test with integrin α4 is recorded as “blocked SDF-1α-induced integrin clustering”.

B1: mouseVCAM-1/humanFc fusion protein (R&D Systems) (Fc fusion, UniProt P29533 25-698, looked up)
chain: FKIEISPEYKTIAQIGDSMALTCSTTGCESPLFSWRTQIDSPLNAKVRTEGSKSVLTMEPVSFENEHSYLCTATCGSGKLERSIHVDIYSFPKDPEIQFSGPLEVGKPVTVKCLAPDIYPVYRLEIDLFKGDQLMNRQEFSSEEMTKSLETKSLEVTFTPVIEDIGKALVCRAKLHIDQIDSTLKERETVKELQVYISPRNTTISVHPSTRLQEGGAVTMTCSSEGLPAPEIFWGRKLDNEVLQLLSGNATLTLIAMRMEDSGVYVCEGVNLIGRDKAEVELVVQEKPFIVDISPGSQVAAQVGDSVVLTCAAIGCDSPSFSWRTQTDSPLNGVVRNEGAKSTLVLSSVGFEDEHSYLCAVTCLQRTLEKRTQVEVYSFPEDPVIKMSGPLVHGRPVTVNCTVPNVYPFDHLEIELLKGETTLMKKYFLEEMGIKSLETKILETTFIPTIEDTGKSLVCLARLHSGEMESEPKQRQSVQPLYVNVAPKETTIWVSPSPILEEGSPVNLTCSSDGIPAPKILWSRQLNNGELQPLSENTTLTFMSTKRDDSGIYVCEGINEAGISRKSVELIIQVSPKDIQLTVFPSKSVKEGDTVIISCTCGNVPETWIILKKKAKTGDMVLKSVDGSYTIRQAQLQDAGIYECESKTEVGSQLRSLTLDVKGKEHNKDYFSPE
notes: Bought reagent; Detected with donkey anti-human-FC-PE; also called VCAM-1/Fc; VCAM-1/FC; not shown: human Fc
As for B1, the binding result in test [2] is on record as “no binding”; in test [3], “binds”. With B2, the binding result in test [4] was “no binding”.

The record behind these values is patent US20100278837A1, “Compositions And Methods For Reducing Cancer And Inflammation” (The Regents of the University of California, priority 2009, published 2010).
